Data reported in US20230310631A1, “THERAPEUTIC USE OF GLUCAGON DERIVATIVE OR CONJUGATE THEREOF FOR LIVER DISEASE” (HANMI PHARM. CO., LTD., priority 2020, published 2023).
Bridge positions count the residues as written; N and C are the ends. Square brackets hold non-standard residues; d marks the D form. Ends that are not written are not given here. Aib = CC(C)(N)C(=O)O

B1: glucagon derivative of SEQ ID NO: 11 (peptide)
peptide: Y[Aib]QGTFTSDYSKYLDEKCAKEFVQWLMNT
modifications: not fully specified (bridges)
B2: glucagon derivative of SEQ ID NO: 14 (peptide)
peptide: Y[Aib]QGTFTSDYSKYLDCKRAKEFVQWLMNT
modifications: not fully specified (bridges)
B3: glucagon derivative of SEQ ID NO: 45 (peptide)
peptide: Y[Aib]QGTFTSDYSCYLDEKRAKEFVQWLMNT
B4: glucagon derivative of SEQ ID NO: 22 (peptide)
peptide: Y[Aib]QGTFTSDYSKYLDEKRCKEFVQWLMNT
modifications: lactam 16-20
B5: glucagon derivative of SEQ ID NO: 32 (peptide)
peptide: SQGTFTSDYSKYLDECRAKEFVQWLMNT
modifications: lactam 15-19
B6: glucagon derivative of SEQ ID NO: 19 (peptide)
peptide: Y[Aib]QGTFTSDYSKYLCEKRAKEFVQWLMNT
modifications: lactam 16-20
B7: glucagon derivative of SEQ ID NO: 26 (peptide)
peptide: W[Aib]QGTFTSDYSKYLDECRAKDFVQWLMNT
modifications: lactam 16-20
B8: glucagon derivative of SEQ ID NO: 9 (peptide)
peptide: Y[Aib]QGTFTSDYSKYLDSCDAQDFVVWLINT
B9: glucagon derivative of SEQ ID NO: 23 (peptide)
peptide: Y[Aib]QGTFTSDYSKYCDEKRAKEFVQWLMNT
modifications: lactam 16-20
B10: glucagon derivative of SEQ ID NO: 12 (peptide)
peptide: Y[Aib]QGTFTSDYSKYLDEKRAKEFVQWLMNTC
modifications: lactam 16-20
B11: glucagon derivative of SEQ ID NO: 38 (peptide)
peptide: Y[Aib]QGTFCSDYSKYLDERRAKEFVQWLMNT
modifications: lactam 16-20
B12: glucagon derivative of SEQ ID NO: 29 (peptide)
peptide: Y[Aib]QGTFTSDYSKCLDERRAKDFVQWLMNT
modifications: lactam 16-20
B13: glucagon derivative of SEQ ID NO: 35 (peptide)
peptide: Y[Aib]QGTFTSDYSKYCDERRAKEFVQWLMNT
modifications: lactam 16-20
B14: glucagon derivative of SEQ ID NO: 39 (peptide)
peptide: Y[Aib]QGTFVSDCSKYLDERRAKDFVQWLMNT
modifications: lactam 16-20
B15: glucagon derivative of SEQ ID NO: 25 (peptide)
peptide: Y[Aib]QGTFTSDYSKYLDEKRAKCFVQWLMNT
modifications: lactam 16-20
B16: glucagon derivative of SEQ ID NO: 16 (peptide)
peptide: Y[Aib]QGTFTSDYSKYLDCRRAQVFVQWLMRT
B17: glucagon derivative of SEQ ID NO: 34 (peptide)
peptide: W[Aib]QGTFTSDYSKYCDERRAKEFVQWLMNT
modifications: lactam 16-20
B18: glucagon derivative of SEQ ID NO: 37 (peptide)
peptide: Y[Aib]QGTFTSDYSKYLDERRAKEFVQWLMNTC
modifications: lactam 16-20
B19: glucagon derivative of SEQ ID NO: 27 (peptide)
peptide: Y[Aib]QGTFVSDYSKYLDECRAKDFVQWLMNT
modifications: lactam 16-20
B20: glucagon derivative of SEQ ID NO: 3 (peptide)
peptide: HSQGTFTSDYSKYLDCERAQDFVQWLMNT
B21: glucagon derivative of SEQ ID NO: 43 (peptide)
peptide: Y[Aib]QGTFTSDCSKYLDSRRAQDFVQWLMNT
B22: glucagon derivative of SEQ ID NO: 40 (peptide)
peptide: Y[Aib]QGTFVSDYSKYLDERRAKDFVQWLMNTC
modifications: lactam 16-20
B23: glucagon derivative of SEQ ID NO: 28 (peptide)
peptide: W[Aib]QGTFVSDYSKYLDECRAKDFVQWLMNT
modifications: lactam 16-20
B24: glucagon derivative of SEQ ID NO: 41 (peptide)
peptide: Y[Aib]QGTFCSDYSKYLDERRAKDFVQWLMNT
modifications: lactam 16-20
B25: glucagon derivative of SEQ ID NO: 36 (peptide)
peptide: Y[Aib]QGTFTSDCSKYLDERRAKEFVQWLMNT
modifications: lactam 16-20
B26: glucagon derivative of SEQ ID NO: 24 (peptide)
peptide: Y[Aib]QGTFTSDYSKCLDEKRAKEFVQWLMNT
modifications: lactam 16-20
B27: glucagon derivative of SEQ ID NO: 8 (peptide)
peptide: Y[Aib]QGTFTSDYSKYLDSCDAQDFVQWLINT
B28: glucagon derivative of SEQ ID NO: 6 (peptide)
peptide: HSQGTFTSDYSKYLDSCEADDFVQWLMNT
B29: glucagon derivative of SEQ ID NO: 2 (peptide)
peptide: HSQGTFTSDYSKYLDCDRAQDFVQWLMNT
B30: glucagon derivative of SEQ ID NO: 30 (peptide)
peptide: W[Aib]QGTFTSDYSKCLDERRAKDFVQWLMNT
modifications: lactam 16-20
B31: glucagon derivative of SEQ ID NO: 44 (peptide)
peptide: YXQGTFTSDYSKYLDSRRAQDFVQWLMNTC
modifications: X at position 2 = aminoisobutyric acid (Aib)
B32: glucagon derivative of SEQ ID NO: 20 (peptide)
peptide: Y[Aib]QGTFTSDYSKYLDECRAKEFVQWLMNT
modifications: lactam 16-20
B33: glucagon derivative of SEQ ID NO: 33 (peptide)
peptide: YXQGTFTSDYSKYLDSRRAQDFVQWLMNT
modifications: X at position 2 = aminoisobutyric acid (Aib)
B34: glucagon derivative of SEQ ID NO: 31 (peptide)
peptide: Y[Aib]QGTFTSDYSKYLDCKRAKEFVQWLMNT
modifications: lactam 17-21
B35: glucagon derivative of SEQ ID NO: 4 (peptide)
peptide: HSQGTFTSDYSKYLDSCDAQDFVQWLMNT
B36: glucagon derivative of SEQ ID NO: 21 (peptide)
peptide: Y[Aib]QGTFTSDYSKYLDEKCAKEFVQWLMNT
modifications: lactam 16-20
B37: glucagon derivative of SEQ ID NO: 5 (peptide)
peptide: HSQGTFTSDYSKYLDSCEAQDFVQWLMNT
B38: glucagon derivative of SEQ ID NO: 13 (peptide)
peptide: Y[Aib]QGTFTSDYSCYLDSRRAQDFVQWLMNT
B39: glucagon derivative of SEQ ID NO: 10 (peptide)
peptide: Y[Aib]QGTFTSDYSKYLDSCDADDFVVWLINT
B40: glucagon derivative of SEQ ID NO: 15 (peptide)
peptide: Y[Aib]QGTFTSDYSKYLCEKRAQDFVVWLMNT
B41: glucagon derivative of SEQ ID NO: 18 (peptide)
peptide: Y[Aib]QGTFTSDYSKYLDSRRACDFRLWLMNT
B42: glucagon derivative of SEQ ID NO: 7 (peptide)
peptide: YSQGTFTSDYSKYLDSCEADDFVQWLMNT
B43: glucagon derivative of SEQ ID NO: 42 (peptide)
peptide: Y[Aib]QGTFCSDYSKYLDSRRAQDFVQWLMNT
B44: glucagon derivative of SEQ ID NO: 17 (peptide)
peptide: Y[Aib]QGTFTSDYSKYLDCVRAQDFVQWLMRT

What follows are binders tested against human glucagon receptor (human, UniProt P47871 26-477) (assay: cell-based or functional assay).
Chain of human glucagon receptor (P47871 26-477): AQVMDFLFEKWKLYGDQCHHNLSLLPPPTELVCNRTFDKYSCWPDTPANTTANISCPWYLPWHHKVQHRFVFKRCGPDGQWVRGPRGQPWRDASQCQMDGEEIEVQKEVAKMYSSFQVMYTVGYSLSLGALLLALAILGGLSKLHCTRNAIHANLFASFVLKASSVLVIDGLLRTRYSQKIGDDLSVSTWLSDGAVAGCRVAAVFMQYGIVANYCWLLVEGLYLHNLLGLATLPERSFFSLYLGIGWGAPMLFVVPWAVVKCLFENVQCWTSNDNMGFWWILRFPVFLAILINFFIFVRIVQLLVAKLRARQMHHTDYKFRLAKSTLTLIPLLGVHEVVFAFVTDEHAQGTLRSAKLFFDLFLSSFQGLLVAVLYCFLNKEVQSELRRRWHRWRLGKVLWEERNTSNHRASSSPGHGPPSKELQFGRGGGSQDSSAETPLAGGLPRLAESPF
In the case of B1, the “In vitro Activity (relative activity to SEQ ID NO: 1, %); cAMP assay, from EC50” value is reported as 4.6%.
With B2 the “In vitro Activity (relative activity to SEQ ID NO: 1, %); cAMP assay, from EC50” value was 18.1%.
For B3, the “In vitro Activity (relative activity to SEQ ID NO: 1, %); cAMP assay, from EC50” value was 5.2%.
For B4, the “In vitro Activity (relative activity to SEQ ID NO: 1, %); cAMP assay, from EC50” value was 148%.
In the case of B5, the “In vitro Activity (relative activity to SEQ ID NO: 1, %); cAMP assay, from EC50” value is reported as 0.7%.
For B6, the “In vitro Activity (relative activity to SEQ ID NO: 1, %); cAMP assay, from EC50” value was 12.1%.
B7 was tested, and the “In vitro Activity (relative activity to SEQ ID NO: 1, %); cAMP assay, from EC50” value was 1%.
B8 was tested, and the “In vitro Activity (relative activity to SEQ ID NO: 1, %); cAMP assay, from EC50” value was under 0.1%.
For B9, the “In vitro Activity (relative activity to SEQ ID NO: 1, %); cAMP assay, from EC50” value was 76.8%.
For B10, the “In vitro Activity (relative activity to SEQ ID NO: 1, %); cAMP assay, from EC50” value was 56.3%.
For B11, the “In vitro Activity (relative activity to SEQ ID NO: 1, %); cAMP assay, from EC50” value was 167%.
For B12, the “In vitro Activity (relative activity to SEQ ID NO: 1, %); cAMP assay, from EC50” value was 61.3%.
In the case of B13, the “In vitro Activity (relative activity to SEQ ID NO: 1, %); cAMP assay, from EC50” value is reported as 17.7%.
For B14, the “In vitro Activity (relative activity to SEQ ID NO: 1, %); cAMP assay, from EC50” value was 3.7%.
B15 was tested, and the “In vitro Activity (relative activity to SEQ ID NO: 1, %); cAMP assay, from EC50” value was 46.9%.
For B16, the “In vitro Activity (relative activity to SEQ ID NO: 1, %); cAMP assay, from EC50” value was 4.2%.
B17 was tested, and the “In vitro Activity (relative activity to SEQ ID NO: 1, %); cAMP assay, from EC50” value was 0.2%.
In the case of B18, the “In vitro Activity (relative activity to SEQ ID NO: 1, %); cAMP assay, from EC50” value is reported as 226%.
With B19 the “In vitro Activity (relative activity to SEQ ID NO: 1, %); cAMP assay, from EC50” value was 93.6%.
For B20, the “In vitro Activity (relative activity to SEQ ID NO: 1, %); cAMP assay, from EC50” value was 6.1%.
B21 was tested, and the “In vitro Activity (relative activity to SEQ ID NO: 1, %); cAMP assay, from EC50” value was 1.6%.
B22 was tested, and the “In vitro Activity (relative activity to SEQ ID NO: 1, %); cAMP assay, from EC50” value was 40.8%.
For B23, the “In vitro Activity (relative activity to SEQ ID NO: 1, %); cAMP assay, from EC50” value was under 0.1%.
In the case of B24, the “In vitro Activity (relative activity to SEQ ID NO: 1, %); cAMP assay, from EC50” value is reported as 45.2%.
With B25 the “In vitro Activity (relative activity to SEQ ID NO: 1, %); cAMP assay, from EC50” value was 9.9%.
With B26 the “In vitro Activity (relative activity to SEQ ID NO: 1, %); cAMP assay, from EC50” value was 58%.
B27 was tested, and the “In vitro Activity (relative activity to SEQ ID NO: 1, %); cAMP assay, from EC50” value was under 0.1%.
For B28, the “In vitro Activity (relative activity to SEQ ID NO: 1, %); cAMP assay, from EC50” value was under 0.1%.
B29 was tested, and the “In vitro Activity (relative activity to SEQ ID NO: 1, %); cAMP assay, from EC50” value was 0.6%.
For B30, the “In vitro Activity (relative activity to SEQ ID NO: 1, %); cAMP assay, from EC50” value was 0.3%.
B31 was tested, and the “In vitro Activity (relative activity to SEQ ID NO: 1, %); cAMP assay, from EC50” value was 75.4%.
B32 was tested, and the “In vitro Activity (relative activity to SEQ ID NO: 1, %); cAMP assay, from EC50” value was 300%.
For B33, the “In vitro Activity (relative activity to SEQ ID NO: 1, %); cAMP assay, from EC50” value was 108%.
With B34 the “In vitro Activity (relative activity to SEQ ID NO: 1, %); cAMP assay, from EC50” value was 6.3%.
With B35 the “In vitro Activity (relative activity to SEQ ID NO: 1, %); cAMP assay, from EC50” value was under 0.1%.
With B36 the “In vitro Activity (relative activity to SEQ ID NO: 1, %); cAMP assay, from EC50” value was 57.8%.
In the case of B37, the “In vitro Activity (relative activity to SEQ ID NO: 1, %); cAMP assay, from EC50” value is reported as 0.3%.
B38 was tested, and the “In vitro Activity (relative activity to SEQ ID NO: 1, %); cAMP assay, from EC50” value was 5.2%.
For B39, the “In vitro Activity (relative activity to SEQ ID NO: 1, %); cAMP assay, from EC50” value was under 0.1%.
B40 was tested, and the “In vitro Activity (relative activity to SEQ ID NO: 1, %); cAMP assay, from EC50” value was 1.1%.
With B41 the “In vitro Activity (relative activity to SEQ ID NO: 1, %); cAMP assay, from EC50” value was under 0.1%.
With B42 the “In vitro Activity (relative activity to SEQ ID NO: 1, %); cAMP assay, from EC50” value was under 0.1%.
B43 was tested, and the “In vitro Activity (relative activity to SEQ ID NO: 1, %); cAMP assay, from EC50” value was 37.9%.
In the case of B44, the “In vitro Activity (relative activity to SEQ ID NO: 1, %); cAMP assay, from EC50” value is reported as 23.2%.
